Target: PD-L1 on FEMX melanoma cells (UniProt Q9NZQ7)
Experiment: cell-based or functional assay

UniProt Q9NZQ7, sequence (Q9NZQ7 19-290 limits assumed): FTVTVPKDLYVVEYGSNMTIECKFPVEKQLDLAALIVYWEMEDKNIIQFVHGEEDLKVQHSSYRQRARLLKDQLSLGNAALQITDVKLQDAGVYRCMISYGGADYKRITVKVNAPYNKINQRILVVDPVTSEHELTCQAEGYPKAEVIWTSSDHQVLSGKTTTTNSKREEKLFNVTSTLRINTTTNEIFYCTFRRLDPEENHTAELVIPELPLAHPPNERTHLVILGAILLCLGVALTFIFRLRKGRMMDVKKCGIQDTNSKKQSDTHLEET

- fraction of CD3+CD8+ TIL making IFN-gamma in a 12-hour intracellular cytokine release (ICS) assay, 1520 TIL co-cultured with FEMX tumor cells, antibody at 10 µg/mL: 37.3%
B1: blocking anti-PD-L1 antibody (Biolegend clone 29E.2A3) (antibody, from another filing, V domains shown)
VH: EVQLQQSGPELVKPGASVKMSCKASGYTFTSYVMHWVKQKPGQGLEWIGYVNPFNDGTKYNEMFKGKATLTSDKSSSTAYMELSSLTSEDSAVYYCARQAWGYPWGQGTLVTVSA
VL: DIVLTQSPASLAVSLGQRATISCRATESVEYYGTSLVQWYQQKPGQPPKLLIYAASSVDSGVPARFSGSGSGTDFSLTIHPVEEDDIAMYFCQQSRRVPYTFGGGTKLEIK

— patent US20170175137A1
